Measurements taken from the supplement of paper PMC9170038.

Tests used:
MS2 coat protein [1] = experiment: apparent KD of MS2 coat protein; designed switch direction (-1 OFF switch, 1 ON switch): 1; higher = weaker reporter binding
Procedure, shortened: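 Stalled E. coli RNA polymerase transcribed designed RNA switches on Illumina chips, which were then titrated with SNAP-549-labelled MS2 coat protein, doubling from 0.7 or 1.5 nM to 3 µM. Steps lasted from 0.8–1.5 h at the lowest concentration to 10–20 min at the highest. The apparent KD is each design's median over clusters of curve-fitted normalised fluorescence.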

MS2 coat protein [2] = experiment: apparent KD of MS2 coat protein; higher = weaker reporter binding; settings: Eterna round: R107
Procedure, shortened: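 The buffer was 100 mM Tris-HCl pH 7.5 with 80 mM KCl and 4 mM MgCl2, used without or with constant ligand. In it, RNA switches transcribed on-chip from Illumina sequencing clusters were titrated with SNAP-549-labelled MS2 coat protein in twofold steps from 0.7 or 1.5 nM to 3 µM. Apparent KD for each design is the median of its normalised cluster binding-curve fits.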

[3] = input ligand: microRNA oligo, concentration not stated
[4] = Eterna round: R95, input ligand: FMN 200 uM
[5] = Eterna round: R95, input ligand: microRNA oligo, concentration not stated
[6] = Eterna round: R95, input ligand: none
[7] = input ligand: theophylline 20 uM
[8] = input ligand: tryptophan 2.4 mM
[9] = input ligand: theophylline 2 mM

Sequence | apparent KD of MS2 coat protein (MS2 coat protein [1]; input ligand: FMN 200 uM) [nM] | apparent KD of MS2 coat protein (MS2 coat protein [1]; [3]) [nM] | apparent KD of MS2 coat protein (MS2 coat protein [1]; input ligand: none) [nM] | apparent KD of MS2 coat protein (MS2 coat protein [1]; [4]) [nM] | apparent KD of MS2 coat protein (MS2 coat protein [1]; [5]) [nM] | apparent KD of MS2 coat protein (MS2 coat protein [1]; [6]) [nM] | further results
AAAAAACAUGAGGAUCACCCAUGUAAAAAUAUGGGAGGAUAUUCAAACACGAAAGUGAAAGAAGAAGGCCUAAAAA [SS! MT 18] (Eterna round: R96, puzzle: Same State 1) | 17.5 | 56.7 | 81.3 | – | – | – | –
AAAAAACAUGAGGAUCACCCAUGUCAAAAGACGUGAGGAUAUGUACAGACUUCGGUCUGUACAGAAGGCACGAAAA [SS1 - 1037] (Eterna round: R96, puzzle: Same State 1) | 17.6 | 19.1 | 26.9 | – | – | – | –
AAAAGCGACGUAGGAUAUCCUCUACAUGCGUAAGGAGAAGGAUGCGCAACAUGAGGAUCACCCAUGUAAAACCAGCACUACUGG [Zalaendi] (Eterna round: R96, puzzle: Same State NG 1) | 53.1 | 32.6 | 44.9 | – | – | – | –
AAAAUAAAAUAAAAGGAUAUAAAAUAAAAUACAUGAGGAUCACCCAUGUAUAAAAUAAAAAAAUAAAAGAAGGAAUAAAAAUAAA [SS2 504: MS2 4] (Eterna round: R96, puzzle: Same State 2) | 28.3 | 22.9 | 26.7 | – | – | – | –
AAAAUGGUAUGUUACAUGAGGAUCACCCAUGUACUCUCCUCUGAGGAUAUGGGAAUGUUGAAAAACCAGAAGGCAGACAUCCAA [AK SSNG3-V2-22] (Eterna round: R96, puzzle: Same State NG 3) | 139 | 177 | 192 | – | – | – | –
AAACACAGCAUAACGCCGUGACAUGAGGAUCACCCAUGUACACAGGAUAUCAUGGCAUAACGCCAUGAGAAGGGUGAUCAAGAC [Raorma] (Eterna round: R96, puzzle: Same State NG 3) | 732 | 77 | 78.8 | – | – | – | –
AAAGCACAUGAGGAUCACCCAUGUGGAAAUAACACAGGAUAUCUGACCGAAACUAAGGCGAGAGAAGGGUGACCUA [Engeerbi] (puzzle: Same State 1) | – | – | – | 148 | 62.8 | 78.9 | –
AAAGGAUGAUGUUACAUGAGGAUCACCCAUGUUGUGAUAACUAAGGAUAUGUGUUUAACUAGUUAAUAGAAGGUAGGAUCAUAA [AK SSNG3-V2-3] (Eterna round: R96, puzzle: Same State NG 3) | 150 | 84.2 | 118 | – | – | – | –
AAAUAGCAUGGAAACAUGCUAAAAACUGUACAUGAGGAUCACCCAUGUCAUGUGUAGGCUUUUUGUUCGUCUUAUAA [Effort 12] (Eterna round: R96, puzzle: Sensor for hsa-mir-208a) | 25.5 | 12.3 | 27.8 | – | – | – | –
AAAUGUAGGAAACAACAGCAAGAGCAUGUACAUGAGGAUCACCCAUGUCAUGUACAAGCUUUUUGCUGGUCUUAUUA [ak 2 mod of one Eli's designs..] (puzzle: Sensor for hsa-mir-208a) | – | – | – | 23.7 | 31 | 19.6 | –
AACAAAUACACAGGAUAUACAGUGGCAACCACUGUAGAAGGGUGGGCGGGUUCCAACAUGAGGAUCACCCAUGUACCCAAUAAC [Atbiladi] (Eterna round: R96, puzzle: Same State NG 1) | 521 | 535 | 882 | – | – | – | –
AACAUGAGGAUCACCCAUGUCAGGCCGCCGGCCUACAUGAGGAAGGAUAUAGCCUCGAAAAUUGGCUAGAAGGUCCUCAUGAAU [Letemaar] (Eterna round: R96, puzzle: Same State NG 3) | 115 | 4.24 | 26.1 | – | – | – | –
AACCGACAUGAGGAUCACCCAUGUAAAUGCAGGGCAGGAUAUCAAUCGGGAGGCCGAAAAUGAGAAGGGCCUAAAA [Onedte] (puzzle: Same State 1) | – | – | – | 46.9 | 250 | 839 | –
AACCGGGAGAAGCAGGAUAUUGCCUCUUCAACAUGAGGAUCACCCAUGUAAGUAAAUUGACGAUACAAGAAGGGCUGCUCCUUAC [Raatgees] (Eterna round: R96, puzzle: Same State 2) | – | 79.1 | – | – | – | – | –
AACGUGGGCUAGCAGGAUAUACUGCGAGUAACAUGAGGAUCACCCAUGUUGUCCCGCAAGACAAUGUAGAAGGGCUGAUACCGCG [Atatlaor] (puzzle: Same State 2) | – | – | – | 18.1 | 28.4 | 26.5 | –
AAGAAAGUUUACGAGGAUAUGUUCCGCAUAACAUGAGGAUCACCCAUGUGAACAAGAAAGGCGACGCAGAAGGCGUGAGCAAAGA [Atanansori] (Eterna round: R96, puzzle: Same State 2) | 42.4 | 152 | 219 | – | – | – | –
AAGAAGACGGACAAGGAUAUGUCAAAGGAAACAUGAGGAUCACCCAUGUGGAGAUUGGAAAAGAAACAGAAGGUGUACGGAGAGA [JR_SS2_Sub007] (puzzle: Same State 2) | – | – | – | 10.6 | 12.3 | 29.3 | –
AAGAGAGGAAGCGAGGAUAUCGUGGGAGGGACAUGAGGAUCACCCAUGUAGGAUGUUGAGAGGAACGAGAAGGCGCAGGAAAGAA [JR_SS2_Sub074] (puzzle: Same State 2) | – | – | – | 87.4 | 73.3 | 96.1 | –
AAGCUCGUGUGAGGAUAUGCCGCCGUUUCGGCUGCAGAAGGUGCUACGUUACAUGAGGAUCACCCAUGUCUCUGUUGUUUCGUA [salish99_SSNG1_r04_952] (Eterna round: R96, puzzle: Same State NG 1) | – | 37 | – | – | – | – | –
AAGUAGGAGUUACAGGAUAUAUGGAGGAGGACAUGAGGAUCACCCAUGUGAGAGAUGAGAGGAGGAUAGAAGGGUAAGGGAGUAA [JR_SS2_Sub027] (puzzle: Same State 2) | – | – | – | 24.1 | 20.9 | 32 | –
AAUUAAGAUUAAGGAUAUCACGUCGUUUAGACGUGAGAAGGUGAUCAUAACAUGAGGAUCACCCAUGUAUUACAUGAAUUAAUU [SSNG1/3-B3] (Eterna round: R96, puzzle: Same State NG 1) | 1040 | 284 | 1190 | – | – | – | –
AAUUUAAUACAUGAGGAUCACCCAUGUAAUACUUGUAAGAUCAAGGAUAUCAGCUCGUUUAGAGCUGAGAAGGUGAUCACAUGU [SSNG3/19-D3] (Eterna round: R96, puzzle: Same State NG 3) | – | 40.7 | – | – | – | – | –
AAUUUCUAGAGAGGAUAUGCAGAGGAUCACCCUGCAGAAGGCUCGAGAGAGAGGAUAUGCAGAGGAUCACCCUGCAGAAGGCUC [pwkr ssNG DX.29] (Eterna round: R96, puzzle: Same State NG 1) | 14.5 | 14.7 | 18.4 | – | – | – | –
AAUUUGGGACAUGAGGAUCACCCAUGUAUUAUAAAUGGGACAAGUUUUUUGCUCGUCUUAUACAUGGGUGAAAAUCU [Test] (puzzle: Sensor for hsa-mir-208a version 2) | – | – | – | 17.8 | 21.7 | 23.7 | –
ACAAGCUUUUCUGUAUUGAAAGGUGGGAUACAUGAGGAUCACCCAUGUUUGUUUGUUUAUUGUUUUCCUCGUCUUAU [JR_SHM208A_Sub089] (puzzle: Sensor for hsa-mir-208a) | – | – | – | 71 | 27.5 | 66.2 | –
ACAAGCUUUUUAGGAAGAGAAGAAAGGGAACAUGAGGAUCACCCAUGUAAGUGGAAUGAAGAAGGAGCACGUCUUAU [JR_SHM208A_Sub096] (puzzle: Sensor for hsa-mir-208a) | – | – | – | 54.2 | 17.5 | 61 | –
ACAUGAGACCGAGGAUAUAUUGUACCUACAUGUGACAUGAGGAUCACCCAUGUGGUAAGUAUGACAUAGAAGGCGGAGAUAUGU [Equivalance 92 - Jieux - Same State NG 2] (Eterna round: R96, puzzle: Same State NG 2) | 19.6 | 25.9 | 30.1 | – | – | – | –
UUUAGUAUCUUAGAUACCAGUUUUGGGUGCUGAACGUCUCACAUGAGGAUCACCCAUGUAAACCCUUGGCAGCUACAUACGUAAA [theeternabot_exclusion_MS2_Theo_B_41] | – | – | – | – | – | – | apparent KD of MS2 coat protein (MS2 coat protein [2]; input ligand: arginine 13.2 mM): 35.7 nM; apparent KD of MS2 coat protein (MS2 coat protein [2]; [7]): 58.9 nM; apparent KD of MS2 coat protein (MS2 coat protein [2]; [8]): 51.9 nM
UUUUUCGCGGGUGAUACCAGCAGAGUUGUACUGGUCUGGUACAUGAGGAUCACCCAUGUUUGCCCUUGGCAGCGCUCGGGAGAAG [#23 Exclusion-TheophyllineB] | – | – | – | – | – | – | apparent KD of MS2 coat protein (MS2 coat protein [2]; input ligand: arginine 13.2 mM): 29.3 nM; apparent KD of MS2 coat protein (MS2 coat protein [2]; input ligand: none): 19.8 nM; apparent KD of MS2 coat protein (MS2 coat protein [2]; [7]): 32.1 nM; apparent KD of MS2 coat protein (MS2 coat protein [2]; [9]): 44.4 nM; apparent KD of MS2 coat protein (MS2 coat protein [2]; [8]): 24.1 nM
UUUUUCGUAGGUUAUAGUUUAGAAACUGAAGGAGCGUGGUAAUACACAGGUAGGUCGCAGAUUUUACAUGAGGAUCACCCAUGUU [JR_ExcArginiA_Sub013] | – | – | – | – | – | – | apparent KD of MS2 coat protein (MS2 coat protein [2]; input ligand: arginine 13.2 mM): 23.5 nM; apparent KD of MS2 coat protein (MS2 coat protein [2]; input ligand: none): 24.1 nM; apparent KD of MS2 coat protein (MS2 coat protein [2]; [7]): 27.6 nM; apparent KD of MS2 coat protein (MS2 coat protein [2]; [9]): 25.1 nM; apparent KD of MS2 coat protein (MS2 coat protein [2]; [8]): 22.7 nM
